“Also recorded” adds a separate entry of the source.
Key:
[1] = system: Acute promyelocytic leukemia cells; details: differentiation down the neutrophil lineage for three days; cited from earlier work
naïve WAS−/− T cells = experiment: In vitro Transwell cell migration toward CCL19; format: cell-based, mouse
Protocol: (§1) Cells from the peripheral lymph nodes and the spleen of Balb/c mice and WAS−/− mice on Balb/c background were pooled and enriched using the EasySep Mouse CD8+ T Cell Enrichment Kit from STEMCELL Technologies (British Columbia, Canada). Enrichment was confirmed using fluorescence-activated cell sorting (FACS) by staining the cells with FITC/anti-Thy1.2 and PE/anti-CD8α antibodies (Abs). The memory T cell population was assessed by evaluating the expression of CD44 and CD62L via FACS. T cells in an activation medium with 100 units/mL IL-2 and 1% anti-CD28 Ab were activated by plate-bound anti-CD3 Abs for 4 day at 37° C. The activation medium included RPMI with 10% FBS, 10 mM HEPES (1M), 1% NEAA, 1% sodium pyruvate (100 mM), 50 μM β-mercaptoethanol, 4 mM L-glutamine, and 100 μg/mL Pen/Strep. Cell activation was verified via FACS measurement of CD25. Enriched WT and WAS−/− T cells in DMEM with 1% BSA and 0.1% Pen/Strep were induced to migrate through polycarbonate Transwell inserts (Costar, Cambridge, Mass.) with 5-μm pores in a 24-well plate toward a CCL19 chemokine source (R&D Systems, Minneapolis, Minn.). Inserts contained 5×10^5 cells in 100 μL of medium, and wells contained 1 mL of medium with either no CCL19 or 100 ng/mL of CCL19. Cells were allowed to migrate for ˜7 hours at 37° C., and those that crossed the membrane were collected and used for MPA studies.

naïve WT T cells = experiment: In vitro Transwell cell migration toward CCL19; format: cell-based, mouse; details: after CCL19 exposure
Protocol: as §1

WT T cells = experiment: Micropipette aspiration of chemokine-stimulated T cells; format: cell-based, mouse
Protocol: (§2) Micropipettes made using a micropipette puller were trimmed to 2.5-3 or 4.5-5 μm inner diameter for testing naïve and activated T cells. MPA glass chambers consisted of a 24 mm×60 mm microscope coverslip bottom, a U-shaped parafilm spacer, and a 22 mm×22 mm microscope coverslip top. The assembly was baked for two hours at 80° C. to ensure good adhesion between the components.
(§3) Enriched WT and WAS−/− T cells in DMEM with 1% BSA and 0.1% Pen/Strep were induced to migrate through polycarbonate Transwell inserts (Costar, Cambridge, Mass.) with 5-μm pores in a 24-well plate toward a CCL19 chemokine source (R&D Systems, Minneapolis, Minn.). Inserts contained 5×10^5 cells in 100 μL of medium, and wells contained 1 mL of medium with either no CCL19 or 100 ng/mL of CCL19. Cells were allowed to migrate for ˜7 hours at 37° C., and those that crossed the membrane were collected and used for MPA studies.
(§4) 3×10^5 cells in 100 μL RPMI with 10% FBS and 1% HEPES was stained with 10 μL trypan blue. The mixture was added to 600 μL of either the RPMI medium or the T cell activation medium with IL-2 for naïve and activated T cell testing. Migratory T cells were tested in the medium used for migration. The MPA device was based on the design of Hochmuth et al (18). The aspiration rate and volume were 36 mL/hr and 2 mL, corresponding to a total pressure of ˜400 Pa. The cell movement in the micropipette was recorded with a CCD camera. Aspirations were performed at approximately room temperature.
(§5) MPA data were fitting using the half-space model (77) described by the expressions:
(§6) where E is the cell modulus, L is the length from the micropipette opening to the cell leading edge, Δp is the pressure differential at a particular L, ri and ro are the inner and outer […] of the micropipette, and φ is the wall function that is approximately […]. The ImageJ software was used to manually track the change in L. By plotting Δp against ri/L and finding the best linear fit (minimal total error) a modulus could be derived from the slope of the line. […]

WAS−/− T cells = experiment: as above; format: cell-based, mouse; details: naïve WAS−/− T cells
Protocol: as §2, §3, §4, §5, §6

CC1=C(/C=C/C(C)=C/C=C/C(C)=C/C(=O)O)C(C)(C)CCC1 [all-trans retinoic acid]
compliance of differentiated cells relative to control (more compliant) [1]: 45%

B1: CCL19: chemokine CCL19 (R&D Systems) used as chemoattractant for T cells (protein, UniProt Q99731 22-98, looked up)
C-C motif chemokine 19: GTNDAEDCCLSVTQKPIPGYIVRNFHYLLIKDGCRVPAVVFTTLRGRQLCAPPDQPWVERIIQRLQRTSAKMKRRSS
cells with naïve phenotype (CD62L and CD44 co-staining), FACS (naïve WAS−/− T cells; all three groups (untreated, remained in insert, migrated)): ~90%
cells migrated (naïve WAS−/− T cells; seven hours exposure to CCL19, 100 ng/mL, 5-μm pore inserts): ~6.4%
migrating cells stained CD62L high and CD44 low (naïve phenotype), FACS (naïve WT T cells): ~90%
stiffness compared to activated cells (WT T cells; migratory WT cells after CCL19): about 1.4 times
change in modulus before and after the chemokine treatment (Student's t test) (WT T cells; naïve WT T cells): significantly different
change in modulus before and after the chemokine treatment (Student's t test) (WAS−/− T cells): did not pass the 95% significance level; also recorded: insignificant decrease

— patent US20110293558A1, “MATERIAL PROPERTIES OF T CELLS AND RELATED METHODS AND COMPOSITIONS” (Massachusetts Institute of Technology, priority 2010, published 2011)
